For 47 sequences, protease stability score results are on record in the NTF2 design screens of Basanta et al. (2020).

The nature of this data set: protease stability score; higher = more stable; yeast display proteolysis, trypsin and chymotrypsin.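 Note: log10 excess protease needed over predicted unfolded state with 0 meaning unfolded.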
Regarding “DEDKVNEFMRHFLDVFETGNEKDVKKMADPNAKIEYGDKTLHGRENLRKVIADWRKRVDRIQIEHVDLQGNKARIIVVLNINGRNIRVDIDVNVHNGEIKSIRFEFTDPKTLQRATS”, the protease stability score was found to be 0.649. Sequence “DEDKVRELVKKAFKAIVNGNEEEVRKLLDPNVKYKYVDKEFEGEEVAKFLVEMVRKLGAKVETEKTHIEGNTARATFVYKLGDQKVQTHAEVKYEGDKVKEVRVEMTDEDKKQLHRG” yielded a protease stability score of 1.17. The result for “DEDKVRKFQEYIEAYRRGDEQKLLKLMDPNVHVEIGDRRYHGHEDMEKILHKEIREIRVDVKIQSIEVRNGHITAHLVMSVNVNGHPVQMQFTVVIEMTNGKIKSIKYRVSEEQKRRFDS” reads 0.49; that for “DEDLAKRFVTFIKIMLNGDPDKLEKMMDENATVNVGDRRLTGHETIAKDLHRLINESRVHIQLRDFDVRPGRVELEFEAERKHDGRPHTSRFIVIVKDHNGKMVKIVVKQTK”, 1.02; that for “DEDLARRLAEEMVKKATHGDEDTVRELIDPNVKFRYGDKDVEGRENFATELAEDMRTADHVHLKQVTIRGDTVQIDMRMVFDGSEDRHDLRLRAHNGKVQEVTIDQG”, -0.112. The result for “DEDLDKQAQEFIHAMQEGDPQRLSEQMDPNARFHVGEKNIHGKEEVMRDFQRTVDQAEIEFKEYSVRAEPGRVRIKLHYVDNNDGRPHSKVQDMVIVFHNGKLVVIDVNDSQ” reads 0.236; that for “DEDLERIIRRFMTALETGDPEELKKQMDENVRVQVGDKVLNGREEAAKHWTKVRDDLRIKIDTFHVENNGNRIDLSVDAEAEHNGRPQRYTLHMKAQVHNGKIKNATFTREQ”, 0.868; that for “DEDLERKAKKYIDALDTGDPDEVSKLVDPNVKFMYGDKTFHGRDQLRRIIQRISDQQRVHVDIKTFSAKGDKVEIKARIEVETDGRPRQFHAIYRMRVHNGKITHISVEMRQ”, 1.23.

Consider “DEDLERKVKELMEVLKSGDESKWMEMVDPNARVQVGDTEIHGRENRREDLKRHKEDSRLDLKSYNVRVHNGQVEVHMSYTYEHNGQPRTSQATARFQLHNGRITEVNVNTTK”, for which the protease stability score was -0.309. The same measure for “DEDLFRRLSELMHAVTNGDEEELVKQADKDARIQYGDKVFHGMDEAARELVRQQKEIRQSWEIKSWDHQGDKVRVTIKNSQDHDGRPHSNRIDVEVKQRNGKVTTARFQTHP”: 0.148; for “DEDLIELAKELMHALQEGDEKRLQDLIDPNASAQIGDHRVHGMDEVLSTLVEHQHNQRVRIDRMEADVHNGTARVRIDQQFEHNGNPDKKVLVYEMTANNGKLKHYKLDEDK”: 0.268.

In turn, “DEDLKHLFHTFQKVLEEGNREKLRRLADENVTVSYGDKRVHGMESFARQVKEERDEQRVVINIRKVDVSGDQVRVVADVEREHNGKPDRKNLVMEANAEGDKFREVKYTEHG” displayed a protease stability score of 0.151. The same measure for “DEDLKKRFKRMLRNLQNNNEENAHELMDPNARWRYGDKVLHGHEQLIEEWKRIHDRMRVEYKSVEVTASGDKVVVEIVFTRHKNGSPDSDNTRWKAVYNNGKLKDMMVTEDG”: 0.637. The same measure for “DEDLKQQFDELVEIKKNGDEDRLVEQADENVKAQVGDKDVHGMKEIAHNIRHTVERIRVEIKSMEVDAQGNRVHVENDFVENNNGKPHRKVVDMKFIFHNGTLKSYTERDDK”: -0.608; for “DEDLLKQADRWVKNLTRGNFKDLQKLFPPDATVQYGDNHIHGMEKISHEWKKEQEEMRIRVDRVQNEHQGEKAVVDLHYKVTHNGKPEENVVILFIEKHNGHMIFMKIQKTG”: 0.739. The result for “DEDLLKQLHTYLRAHETGDRSRLRKLMDPNAEVRIGNHELHGREEILTQQVEEAHKITQYFEIDSVEVRPNSIKVKAHVSMNVNGQPFRTEVEYDVRIRNGRIQEITYRLPEEFLREVNR” reads -0.229; that for “DEDLLRKIKQLLRAFEDNNEDQLRKNADPNARFVYGDKHIHGMEEAMRHQVTRYKEIRIERQIDTMSVTNGRANVQFTVVENHNGRPDTFHVQVDIKAHNGRVHTIEYEIHK”, 0.387; that for “DEDLLRRAEQFIKAELRNNPDRAKELADPNVKFNIGDKEIHGMDDFRRYLHKKVKNMKWRAKVTHMKVQGNHAKLHVKVTLDINGRPFDVTRDILIVFHNGKIRDVNVRVDPEDKKRQKE”, 1.39. Consider “DEDLMERLKTILDAQSNGNPDELRRMFDPNAKIDIGDKEYHGMENFASNQHKRVKHIEQKYQFKSISAEGDKLDVRLRAQQVVNGTPRKYEYNLTARMSNGKVKSMEVQIPEEVLKRLEK”, for which the protease stability score was -0.219. The same measure for “DEDLMRKFVERVKTGDPKDLVDQLDENAHQVVGETRVHGRSQFEKLAKKLEEQVDHIKVRSVKQENGRVDMDVVVNVNGQNNRYVLRVDVHNGKIKHMEVEFTDEEDEKAYRKALG”: 0.095; for “DEDLMTQIVKRYIDAWREGDRDELMKLADENVHIQVGDQTYHGQEQWRELVKKHKDNADHMDVKSWNIRGEKVHVHYWARFNGVEIEDTVEIQYENGRIIDIQFDPDQQRKEDK”: 0.676. In turn, “DEDLNDMAVRMAEILNEGNEDEYNKQIDPHARFVIGDKEYSGHEHFKKEIQRQNKEMRVTVNLHRWDATNGEMHLVIHYSWNVNGRPTTIHVHFRITARGDKFKQIDVHMDPDELRRVDS” came in with a protease stability score of 0.765.

“DEDLQEFAERLLQVNRTGDEDQFRRNVDPNAKMVVGDKEYHGRDELARFFRHLREHARFELNVKSVSVEGDTVEIHFEARVDINGKPLTYEASMSMRVEGDRVKRITFRMDPDQRRKAHS” gave a protease stability score of 1.11. The same measure for “DEDLQKQAERFLHAVNTGNEEQIHRLVDKDARMQYGDRRVHGRERIATWYRQMKEEIRQDIEVRTVRVRNGRVEVDARVERHVNGRPIDNKFHMSIQIENGKVKSITAHLDPNVLQEIKR”: 1.17; for “DEDLRRQAETMVDNINTNNERELEKLFDPNVHVVVGDRRINGTEHLRDYWRRIRDHMRLEVNLRRISVHNGKISAHVDVVREHNGKPDEDTFRMSAVVRNGKFHKMRVEKDG”: 1.37; for “DEDLSRNFHQFIEALKQNDTDRMKELIDPNARMRYGDKQLHGRENILNYWKKLNDQARVDLDLKSVRNDENHIRYNYKMRVHVNGRPVEDTATAEIRATNGRIVDIYIDFDPEKLRQIES”: 2.34. In turn, “DEDLTKRFRQLIKAQETGDPDKIKNQVDKDVHAHVGDKTVSGREKLATQIHRDVQHSHFKVHVDNVRNHGNKVEVDARMVMNINGRPVTFTVNMDFTFHDGTIHRIKMSISEEDKKKTDS” showed a protease stability score of 0.793. The same measure for “DEDLVERVQDLLEAERENDEDTVSKMVDPNVKFSYGNRELHGREQWTKHVAEKQKQMRIQIDIDSYSVQGNHATFTAKITVHINGKPMSDTVTFQIVFSNGKVEEVRMRIDPRFQREVES”: 0.016. The result for “DEDMSRKAKKFWKAETDGNPQKLKTLIDPNARAHVGDQDLHGRRKIVHWLKHFRDTMRQHWTRYSFDAHGNKVDNRFVVVLQTNGKPERRRNKLTLVFKNGRLVSMRDETKG” reads 0.128.

With “DEDMYEQYESILHNERTGNEDEWVENIDPNARIRVGDKEVHGMEDNAREKRRHQEEQRVHFDIKRYSIHNGELDVTAKMRRDVNGQPAQDDVKVRIVVENGRIKEQDQDFDEDDDRRQKK”, the protease stability score is -0.037. The result for “DEDNAERVHTALDILERGNPEEVKKMFRDDVRATIGDTVIHGMTNFAHYMQRLMDHARVNITIRSWSVKNGRVEIDAEIHANHNGQPYHDRFKIKAEVTNGRFKYLQYDIDPDFLRDMTK” reads 1.25; that for “DEDNEKELQREIVRVLKHNDWERFTQLIDEDVRLEYGDQRYHGREQVSKHFTDLAQEVDSVEVTSVKAHNGKINITAILNHNGTNHRYNIRFEFRNGRLKVVRYDHT”, 1.85; that for “DEDNHRKAKKLIDAENTGDPTQVRKLADPNVHVEYGDEHVHGRDEIANELSKKAKEIRFRVDRLSFSVHNGTFSATQRMKENDNGRPEEFRVERSMELHNGKFVSIVQKKKS”, -0.071. The same measure for “DEDNLRDAMEVYHQNDPDKAVKMADEDVKVVVGDRKWNGREDFEEAMRTFNQRVDHIEYKSMDVSNGQISIDVVINVDGQNARFILNIEIHNGKIKSLRYQWRNENVRQVLTEIFQ”: 0.795. The same measure for “DEDNMHRLKEFLDNLNQGDEERLVELADEDVKLVYGEKRYHGREELTKTLETQRDQMRVDYKVKSMSVSNGRVHADIEASNTKNGKPKRFKVRVHAEFHNGRLQVYNQQEDK”: 0.42. “DEDNQREANRAAKTGDFKRMAEKADPNVSVTVGDKEVKGREEVHKFVQRFDDQVDDLDIKSFRVEGDKVHVQATAVFNGKKIEFSFSARIHNGKLTKMTVKVRDPRQQKKLQKQWE” displayed a protease stability score of 0.004.

“DEDNQTQTAERVVEIMRTGDEHKMRNLADENVKIQIGDKKYRGRDEASKQAKELRDRVDRLRVVRFDVHGNKVRIVMQFKYNGVTVNFKFTVEIHNGRVKSMEMRYTNPEDLKRARS” had a protease stability score of 0.182.

For “DEDNTDRARKFFEALRTNDPDQVSSLLDPNARVHIGDRVINGREEVRTHIKHLTDKIRFQIQKVTVHVSNGRISAHVTFEVEVNGRPDRFNMEVVARVENGKIKVMQFKISEDQMQKLRN”, the protease stability score turned out to be 1.39.

With “DEDNVKRAEHFAEALITGNPEEIQKQVDPNAKIKVGEQEVHGMESYAKEVHEENKEMHIEIRHISATAQGDRARLEMRYVINSNGRPQHVVQEYTIKLHNGRAQEIEVKDDG”, the protease stability score was determined as 0.282.

For “DEDQAKEQVDNARKVINQGNFSEAVKTADPNVKAAYGEKRLEGRQVLHTYQEVFQRRVDHVHVRRVDLKGEKATIKAELTINGRTTTMRMVVEVSNGRLKNFYVKYK”, the protease stability score was 0.145. As to “DEDQAKTIEELWRTNDFDTLATQADKDVHNHVGDKKIHGRTQHTQAQERIRRAVDHFDVKRVNIQGNKVDIDVVMEVNGKNVHMTVVITVHNGKIKHMSMRVRDEEVKKLFEEMEQ”, the protease stability score was 0.527. The same measure for “DEDQAQKLIDKMTEAMFKNDEETIRKVGKEDVEVKNADEEYKGVDTIVDLARKYKEQGIEFHLEQVHKEGDQVKFTAVVHVADRTVKVEVKYKADNGHVERTEVEWSQEVKKAFQQH”: 0.97. The result for “DEDQARLAIRFMEAWLEGNEDELKNQADPNAHFQVGDKHVTGMDEAAKELKTQLTEIRWDYKSVRIDTEEGRANLDMTVRMEVNGKPVEHSQKIEVERHNGQLSVIDQQFDNDTWDEVKS” reads -0.393.

As for “DEDQATEVAELVKSNDWENLRRNIDPNARMHIGDRTLHGREEIAEVFRRIVEQADHQRLHHLEVEGDTIVIRMTVNINGKEVDFRMKIQFHNGKIKEVRVDFTDPKERKVFDKAAR”, the protease stability score was 1.28.

As to “DEDQEDLIRRLIKALDTGDPEQARKNADKDARFNYGDQEIHGMQTFVDDLEKRKRQMHVRITRIDVRVHNGQAKQSVNEVTNHNGRPQSRVQDRRIQITNGRVKKMENDDDG”, the protease stability score is -0.316. The result for “DEDQELRSLAEDAVRAMQSNNPDDFVNLFPENARINIGDKNIHGREEIKKHAQEVNTKVDRFSVTIEHIHVHNGKAEFTVDFVMNINGRTERRRASFRIDRIGDKVRIHSADVK” reads 0.571; that for “DEDQHRRWQELMKAIETGDPERIKELMDPNAEFVVGDKHVRGREKYAREVHRELRTMRVEFRILSLRVQGDRLLADVEVVTHDDGKPTSHRFKLEVKAENGTIRVFRNQSVP”, 0.155.
